Where a chain is given by its changes, count along the chain named.

The assay deals with T1, mouse insulin receptor (mouse, UniProt P15208 28-1372).
T1 construct: whole, on cells; also called muINSR; mINSR
Nature of the assay: FACS on mouse INSR; conditions not given on the sheet.

B1: Ab026 (antibody, V domains shown)
VH: EVQLLESGGGLVQPGGSLRLSCAASGFTFSNYVISWVRQAPGKGLEWVSAISGSGGSTFYPDSVKGRFTISRDNSKNTLYLQMNSLRAEDTAMYYCARVGLSGWYYFDYWGQGTLVTVSS
VL: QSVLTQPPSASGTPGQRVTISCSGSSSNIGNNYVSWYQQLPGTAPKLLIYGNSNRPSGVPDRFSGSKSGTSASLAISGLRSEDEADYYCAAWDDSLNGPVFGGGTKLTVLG
notes: also called XPA.015.026
Turning to B1, the binding result is on record as “no binding”.

B2: Ab039 (antibody, V domains shown)
VH: EVQLLESGGGLVQPGGSLRLSCAASGFTFSSYWMSWVRQAPGKGLEWVSGISGSGGYTSYADSVKGRFTISRDNSKNTLYLQMNSLRAEDTAVYYCAKDSSDWYINSWGQGTLVTVSS
VL: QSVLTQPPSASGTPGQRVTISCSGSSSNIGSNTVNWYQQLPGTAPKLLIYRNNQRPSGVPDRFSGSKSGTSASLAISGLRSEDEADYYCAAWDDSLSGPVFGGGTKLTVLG
notes: also called XPA.015.074
With B2, the binding result was “binds”.

B3: Ab002 (antibody, V domains shown)
VH: EVKLVESEEGLVKPGGSLKLSCAASGFTFSNYAMSWVRQTPEKRLEWVATISDGGHYTYYSDTIKGRFTISRDNAKNNLFLQLSHLKSEDTAIYYCARGTVFDYWGQGTTLTVSS
VL: DIQMTQTTSSLSASLGDRVTISCRASQDISNYLNWYQQKPDGTVKLLIYYTSRLHSGVPSRFSGSGSGTDYSLTISNLEPEDIATFYCQQYSDLPYTFGGGTKLEIKR
notes: also called XPA.015.190
In the case of B3, the binding result is reported as “no binding”.

B4: Ab032 (antibody, V domains shown)
VH: EVQLLESGGGLVQPGGSLRLSCAASGFTFSNYAMGWVRQAPGKGLEWVSSISGSGGTTYYADSVKGRFTISRDNSKNTLYLQMNSLRAEDTAVYYCARHKGLQPLDYWGQGTLVTVSS
VL: QSVLTQPPSASGTPGQRVTISCSGSISNIGSNYVSWYQQLPGTAPKLLIYGNSNRPSGVPDRFSGSKSGTSASLAISGLRSEDEADYYCAAWDDSLSPHVVFGGGTKLTVLG
notes: also called XPA.015.093
B4: the binding result is recorded as “binds”.

B5: Ab006 (antibody, V domains shown)
VH: B4 VH
VL: B4 VL
notes: also called XPA.015.013
For B5, the binding result is given as “binds”.

B6: Ab011 (antibody, V domains shown)
VH: B4 VH with S118F
VL: B4 VL
notes: also called XPA.015.085
Turning to B6, the binding result was “binds”.

B7: Ab036 (antibody, V domains shown)
VH: B4 VH
VL: B4 VL with I26S, S31G, Y33S, S35H
notes: also called XPA.015.047
For B7, the binding result is on record as “binds”.

B8: Ab009 (antibody, V domains shown)
VH: B4 VH with G15W, L79P
VL: B4 VL
notes: also called XPA.015.075
For B8, the binding result is “binds”.

B9: Ab031 (antibody, V domains shown)
VH: EVQLLESGGGLVQPGGSLRLSCAASGFTFSSNYMSWVRQAPGKGLEWVSSISGGSTYYADSRKGRFTISRDNSKNTLYLQMNSLRAEDTAVYYCARLDWSSGAFDIWGQGTLVTVSS
VL: QSVLTQPPSASGTPGQRVTISCSGRSSNIGYNYVSWYQQLPGTAPKLLIYGNSNRPSGVPDRFSGSKSGTSASLAISGLRSEDEADYYCAAWDDSLSGPVFGGGTKLTVLG
notes: printed on the sheet as Ab031` with a stray mark; also called XPA.015.037
B9: the binding result is given as “no binding”.

B10: Ab024 (antibody, V domains shown)
VH: EVQLLESGGGLVQPGGSLRLSCAASGFTFSDYYMSWIRRAPGKGLEWVSRISWNSGSIGYADSLKGRFTISRDNSKNTLYLQMNSLRAEDTAVYYCARERGYGYDYWGQGTLVTVSS
VL: B9 VL with R25T, I29L, Y31S, N32H, Y33T, G51D, S53N, N54E, G98A, P99W
notes: also called XPA.015.022
Take B10: the binding result is “no binding”.

B11: Ab027 (antibody, V domains shown)
VH: EVQLLESGGGLVQPGGSLGLSCAASGFTFNNYWMSWVRQAPGKGLEWVSYISGSGRTIYYADSVKGRFTISRDNSKNTLYLQMNSLRAEDTAVYYCARVGSSGWYYFDYWGQGTLVTVSS
VL: B9 VL with G30E, Y31N, S97N, P99V
notes: also called XPA.015.042
Consider B11, for which the binding result is reported as “no binding”.

B12: Ab028 (antibody, V domains shown)
VH: EVQLLESGGGLVQPGGSLRLSCAASGFTFRNYWMTWVRQAPGKGLEWVANIKQDGSEKYYVDSVKGRSTISRDNSKNTLYLQMNSLRAEDTAVYYCARQVGGGPFDIWGQGTLVTVSS
VL: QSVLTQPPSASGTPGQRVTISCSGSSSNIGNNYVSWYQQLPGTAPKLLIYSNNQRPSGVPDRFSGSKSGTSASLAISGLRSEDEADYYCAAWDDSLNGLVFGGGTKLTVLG
notes: also called XPA.015.059
Consider B12, for which the binding result is on record as “no binding”.

B13: Ab038 (antibody, V domains shown)
VH: EVQLLESGGGLVQPGGSLRLSCAASGFTFSNYAMTWVRQAPGKGLEWVSYIHAGGGTHYANSVKGRFTISRDNSKNTLYLQMNSLRAEDTAVYYCARDLHWEGWGLGFDYWGQGTLVTVSS
VL: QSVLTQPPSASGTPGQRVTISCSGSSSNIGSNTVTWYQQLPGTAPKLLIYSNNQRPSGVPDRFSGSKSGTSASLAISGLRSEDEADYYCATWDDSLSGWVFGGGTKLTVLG
notes: also called XPA.015.065
B13: the binding result was “binds”.

B14: Ab042 (antibody, V domains shown)
VH: B13 VH
VL: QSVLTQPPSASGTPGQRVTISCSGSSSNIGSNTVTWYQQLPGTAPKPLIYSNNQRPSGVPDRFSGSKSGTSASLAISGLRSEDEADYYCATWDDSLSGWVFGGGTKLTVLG
notes: also called XPA.015.086
Consider B14, for which the binding result is listed as “no binding”.

B15: Ab017 (antibody, V domains shown)
VH: EVQLLESGGGLVQPGGSLRLSCAASGFTFSSYSMNWVRQAPGKGLEWVSVIYSGDSTYYADSVKGRFTISRDNSKNTLYLQMNSLRAEDTAVYYCARQVRDGDYGDWFDPWGQGTLVTVSS
VL: QSVLTQPPSASGTPGQRVTISCTGSSSNIGAGYDVHWYQQLPGTAPKLLIYGNSNRPSGVPDRFSGSKSGTSASLAISGLRSEDEADYYCAAWDDSLSGWVFGGGTKLTVLG
notes: also called XPA.015.017
B15: the binding result was “binds”.

B16: Ab030 (antibody, V domains shown)
VH: EVQLLESGGGLVQPGGSLRLSCAASGFTFSSYSMNWVRQAPGKGLEWVSAISGSGGSTYYADSVKGRFTISRDNSKNTLYLQMNSLRAEDTAVYYCARDSWELLGYDAFDIWGQGTLVTVSS
VL: B15 VL with G52D, S54N, N55K, A92S, L97H, S98L, G99H, W100V, V101L
notes: also called XPA.015.036
For the molecule B16, the binding result was “binds”.

B17: Ab018 (antibody, V domains shown)
VH: EVQLLESGGGLVQPGGSLRLSCAASGFTFSSYWMSWVRQAPGKGLEWVSGISGSGGYIHYADSVKGRFTISRDDSKNTLYLQMNSLRAEDTAVYYCAREGSGWLVDQWGQGTLVTVSS
VL: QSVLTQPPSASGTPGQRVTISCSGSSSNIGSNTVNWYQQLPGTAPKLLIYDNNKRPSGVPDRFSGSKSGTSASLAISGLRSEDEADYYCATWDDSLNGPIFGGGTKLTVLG
notes: also called XPA.015.139
As for B17, the binding result is given as “binds”.

B18: Ab014 (antibody, V domains shown)
VH: EVQLLESGGGLVQPGGSLRLSCAASGFTFSNAWMSWVRQAPGKGLEWVSAISGSGGSTYYADSVKGRFTISRDNSKNTLYLQMNSLRAEDTAVYYCAAPTVPYYYYGMDVWGQGTLVTVSS
VL: QSVLTQPPSASGTPGQRVTISCSGCSSNIGNNAVNWYQQLPGTAPKLLIYRSDQRLAGVPDRFSGSKSGTSASLAISGLRSEDEADYYCQSYDSSLIGHWVFGGGTKLTVLG
notes: also called XPA.015.158
Take B18: the binding result is given as “binds”.

B19: Ab040 (antibody, V domains shown)
VH: EVQLLESGGGLVQPGGSLRLSCAASGFTFSSYWMSWVRQAPGKGLEWVAVISKDGSSTDYAHSVKGRFTISRDNSKNTLYLQMNSLRAEDTAVYYCARDRDWIPGDVWGQGTLVTVSS
VL: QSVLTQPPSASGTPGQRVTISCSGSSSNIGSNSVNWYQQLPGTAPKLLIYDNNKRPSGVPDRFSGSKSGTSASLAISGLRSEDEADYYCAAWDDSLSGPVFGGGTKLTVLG
notes: also called XPA.015.077
For the molecule B19, the binding result is given as “binds”.

Values taken from US20160009800A1 (XOMA US, published 2016).
